# According to paper doi:10.1101/2021.10.05.463282 (2021):
# Target: recombinant RBD derived from SARS-CoV-2 (Sino Biological) (SARS-CoV-2, ancestral (Wuhan-Hu-1) …, UniProt P0DTC2)
# Test: ELISA
row,Binder,binding result
1,"B8-IgG1 (antibody, V domains shown) VH: EVQLVQSGAEVKKPGSSVKVSCKASGGTFSNYGISWVRQAPGQGLEWMGRILPTFGTANSAQKFQGRVTITADESTGTAYMELRSLRSEDTAVYYCAKEGLAFLGYGMDVWGQGTTVTVSS VL: EIVLTQSPGTLSLSPGERATLSCRASQSVSSYLAWYQQKPGQAPRLLIYDASNRATGIPARFIGSGSGTDFTLTISSLEPEDFAVYFCQQRSNWPLTFGGGTKVEIK",binds
2,"B8-dIgA1 (antibody, V domains shown) VH: EVQLVQSGAEVKKPGSSVKVSCKASGGTFSNYGISWVRQAPGQGLEWMGRILPTFGTANSAQKFQGRVTITADESTGTAYMELRSLRSEDTAVYYCAKEGLAFLGYGMDVWGQGTTVTVSS VL: EIVLTQSPGTLSLSPGERATLSCRASQSVSSYLAWYQQKPGQAPRLLIYDASNRATGIPARFIGSGSGTDFTLTISSLEPEDFAVYFCQQRSNWPLTFGGGTKVEIK",binds
3,"B8-dIgA2 (antibody, V domains shown) VH: EVQLVQSGAEVKKPGSSVKVSCKASGGTFSNYGISWVRQAPGQGLEWMGRILPTFGTANSAQKFQGRVTITADESTGTAYMELRSLRSEDTAVYYCAKEGLAFLGYGMDVWGQGTTVTVSS VL: EIVLTQSPGTLSLSPGERATLSCRASQSVSSYLAWYQQKPGQAPRLLIYDASNRATGIPARFIGSGSGTDFTLTISSLEPEDFAVYFCQQRSNWPLTFGGGTKVEIK",binds
4,"B8-mIgA1 (antibody, V domains shown) VH: EVQLVQSGAEVKKPGSSVKVSCKASGGTFSNYGISWVRQAPGQGLEWMGRILPTFGTANSAQKFQGRVTITADESTGTAYMELRSLRSEDTAVYYCAKEGLAFLGYGMDVWGQGTTVTVSS VL: EIVLTQSPGTLSLSPGERATLSCRASQSVSSYLAWYQQKPGQAPRLLIYDASNRATGIPARFIGSGSGTDFTLTISSLEPEDFAVYFCQQRSNWPLTFGGGTKVEIK",binds
5,"B8-mIgA2 (antibody, V domains shown) VH: EVQLVQSGAEVKKPGSSVKVSCKASGGTFSNYGISWVRQAPGQGLEWMGRILPTFGTANSAQKFQGRVTITADESTGTAYMELRSLRSEDTAVYYCAKEGLAFLGYGMDVWGQGTTVTVSS VL: EIVLTQSPGTLSLSPGERATLSCRASQSVSSYLAWYQQKPGQAPRLLIYDASNRATGIPARFIGSGSGTDFTLTISSLEPEDFAVYFCQQRSNWPLTFGGGTKVEIK",binds
